This note sets out measurements from the Immune Epitope Database (IEDB).

Some targets named below: HLA-A*68:01; HLA-A*33:01; HLA-A*03:01; HLA-A*11:01; HLA-A*31:01.
What all share (test): IEDB peptide-MHC binding, purified MHC/competitive/radioactivity; filed as Kd, often an IC50 or EC50 that approximates it; ≥ and ≤ were set here for values at or beyond the usual limits of such assays
Where [1] appears, read: source organism: Vaccinia virus WR.
Setting [2] is: source organism: SARS coronavirus Tor2.
Where [3] appears, read: source organism: Dengue virus 4 Philippines/H241/1956.
Setting [4] is: source organism: Dengue virus 1 Brazil/97-11/1997.
Setting [5] is: source organism: Lassa virus Josiah.
[6] abbreviates: source organism: Mammarenavirus guanaritoense.
[7] abbreviates: source organism: Mammarenavirus brazilense.

For the sequence KFAEESYTY, the Kd with HLA-A*68:01 (setting [1]) was at least 38700 nM; with HLA-A*33:01 (setting [1]) it was at least 77700 nM; with HLA-A*03:01 (setting [1]) it was at least 78000 nM; with HLA-A*11:01 (setting [1]), 16500 nM; in the experiment with HLA-A*31:01 (setting [1]), 13500 nM.
With CMTSCCSCLK, the Kd came out at 40.2 nM with HLA-A*68:01 (setting [2]); 1860 nM with HLA-A*33:01 (setting [2]); 62.7 nM with HLA-A*03:01 (setting [2]); 80.8 nM with HLA-A*11:01 (setting [2]); 800 nM in the experiment with HLA-A*31:01 (setting [2]).
Regarding PVYLMTLMK, the equilibrium dissociation constant (Kd) was 3.91 nM in the experiment with HLA-A*03:01 (setting [3]) and 196 nM with HLA-A*11:01 (setting [3]).
Consider QTMLFTMLRK, for which the Kd with HLA-A*68:01 (setting [2]) was 19.9 nM; in the experiment with HLA-A*33:01 (setting [2]), 268 nM; in the experiment with HLA-A*03:01 (setting [2]), 11.1 nM; with HLA-A*11:01 (setting [2]) it was 4.57 nM; in the experiment with HLA-A*31:01 (setting [2]) it was 164 nM.
In the same order, the values of TQLYLGGMSY are 1350 nM, at least 40000 nM, 36.5 nM, 766 nM and 5840 nM.
Take VAEHRFENMK: the Kd was 5730 nM with HLA-A*68:01 (setting [1]); at least 70000 nM with HLA-A*33:01 (setting [1]); 4870 nM with HLA-A*03:01 (setting [1]); 788 nM with HLA-A*11:01 (setting [1]); at least 34700 nM with HLA-A*31:01 (setting [1]).
Turning to VVYDAKFEK, the Kd with HLA-A*03:01 (setting [4]) was found to be 7.01 nM; with HLA-A*11:01 (setting [4]), 42.4 nM.
Take PVSDLYTSMR: the Kd stood at 1.3 nM with HLA-A*68:01 (setting [1]); 346 nM with HLA-A*33:01 (setting [1]); 6260 nM with HLA-A*03:01 (setting [1]); 638 nM in the experiment with HLA-A*11:01 (setting [1]); 539 nM in the experiment with HLA-A*31:01 (setting [1]).
As to VVKDDPDHY, the Kd with HLA-A*68:01 (setting [1]) is 8050 nM; with HLA-A*33:01 (setting [1]), at least 77700 nM; with HLA-A*03:01 (setting [1]), at least 78000 nM; with HLA-A*11:01 (setting [1]), 1800 nM; with HLA-A*31:01 (setting [1]), at least 77900 nM.
In the case of SAVIDALPR, the Kd with HLA-A*68:01 (setting [5]) turned out to be 53.3 nM; with HLA-A*33:01 (setting [5]) it was 15300 nM; with HLA-A*03:01 (setting [5]), 11000 nM; with HLA-A*11:01 (setting [5]) it was 222 nM; with HLA-A*31:01 (setting [5]) it was 2120 nM.
Regarding KLRPRWLDAR, in the experiment with HLA-A*31:01 (setting [4]), the Kd was found to be 0.403 nM.
Take DLLFNEKLK: the Kd with HLA-A*68:01 (setting [1]) amounted to 29.2 nM; in the experiment with HLA-A*33:01 (setting [1]) it was 744 nM; with HLA-A*03:01 (setting [1]) it was 1920 nM; in the experiment with HLA-A*11:01 (setting [1]) it was 188 nM; with HLA-A*31:01 (setting [1]) it was 8150 nM.
Regarding KCSDHYLCLR, the Kd with HLA-A*68:01 (setting [6]) was at least 70100 nM; with HLA-A*33:01 (setting [6]), 5780 nM; with HLA-A*03:01 (setting [6]) it was 4760 nM; with HLA-A*11:01 (setting [6]), at least 44800 nM; with HLA-A*31:01 (setting [6]), 140 nM.
Take KTSSVARLR: the Kd with HLA-A*11:01 (source organism: Lymphocytic choriomeningitis virus (strain Armstrong)) was 72.8 nM.
For the sequence ILEYLYIMR, the Kd with HLA-A*68:01 (setting [1]) turned out to be 303 nM; with HLA-A*33:01 (setting [1]) it was 426 nM; in the experiment with HLA-A*03:01 (setting [1]), 1570 nM; with HLA-A*11:01 (setting [1]), 1090 nM; with HLA-A*31:01 (setting [1]) it was 97.6 nM.
LNTPYCNYTK: the Kd was 695 nM with HLA-A*68:01 (setting [7]); 32 nM with HLA-A*33:01 (setting [7]); 15300 nM with HLA-A*03:01 (setting [7]); 10800 nM with HLA-A*11:01 (setting [7]); 6410 nM in the experiment with HLA-A*31:01 (setting [7]).
Take LTTLSRTSK: the Kd with HLA-A*11:01 (source organism: Dengue virus 2 Jamaica/1409/1983) is 214 nM.
Take ISAEKTPIR: the Kd was 275 nM with HLA-A*68:01 (setting [1]); at least 77700 nM with HLA-A*33:01 (setting [1]); at least 78000 nM in the experiment with HLA-A*03:01 (setting [1]); 6020 nM with HLA-A*11:01 (setting [1]); at least 41700 nM with HLA-A*31:01 (setting [1]).
For the sequence FQGKFKKIVK, the Kd with HLA-A*68:01 (setting [2]) is at least 24200 nM; with HLA-A*33:01 (setting [2]), at least 24700 nM; with HLA-A*03:01 (setting [2]), 9460 nM; with HLA-A*11:01 (setting [2]), 2880 nM; with HLA-A*31:01 (setting [2]) it was 13400 nM.
TINVNSLALK: the Kd with HLA-A*68:01 (setting [1]) amounted to 6.2 nM; with HLA-A*33:01 (setting [1]) it was 4000 nM; with HLA-A*03:01 (setting [1]), 17.3 nM; with HLA-A*11:01 (setting [1]) it was 18.7 nM; in the experiment with HLA-A*31:01 (setting [1]), 1120 nM.
As for DIFMRDWNSK, the Kd with HLA-A*68:01 (setting [1]) was 74.2 nM; with HLA-A*33:01 (setting [1]), 548 nM; with HLA-A*03:01 (setting [1]), at least 70100 nM; in the experiment with HLA-A*11:01 (setting [1]), 4230 nM; with HLA-A*31:01 (setting [1]) it was 12400 nM.
DSYTQMCDHR: in the experiment with HLA-A*33:01 (setting [4]), the Kd is 335 nM.
Consider PAGRPNYVK, for which the Kd was 15900 nM in the experiment with HLA-A*68:01 (setting [1]); 7210 nM with HLA-A*33:01 (setting [1]); at least 31900 nM with HLA-A*03:01 (setting [1]); 210 nM in the experiment with HLA-A*11:01 (setting [1]); 12 nM in the experiment with HLA-A*31:01 (setting [1]).
DQAMTQMYK: the Kd was determined as 121 nM with HLA-A*68:01 (setting [2]); 8450 nM with HLA-A*33:01 (setting [2]); 2560 nM in the experiment with HLA-A*03:01 (setting [2]); 866 nM in the experiment with HLA-A*11:01 (setting [2]); 6970 nM with HLA-A*31:01 (setting [2]).
Take FIQWTGGNIR: the Kd is 112 nM in the experiment with HLA-A*68:01 (setting [1]); 2050 nM in the experiment with HLA-A*33:01 (setting [1]); at least 29800 nM in the experiment with HLA-A*03:01 (setting [1]); at least 22000 nM with HLA-A*11:01 (setting [1]); 3860 nM with HLA-A*31:01 (setting [1]).
Consider GVRVRVAVNK, for which the Kd in the experiment with HLA-A*68:01 (setting [1]) was 2190 nM; in the experiment with HLA-A*33:01 (setting [1]), at least 70000 nM; with HLA-A*03:01 (setting [1]), 52.2 nM; with HLA-A*11:01 (setting [1]), 840 nM; with HLA-A*31:01 (setting [1]), 12100 nM.

For orientation: Kd means a measure of binding affinity in units of concentration.
